system: cell adhesion; test: Testing of gestation proteins from various sources as adhesion blocker; format: cell-based; settings: not given
Excerpt: Testing of Gestation Proteins from Various Sources as Adhesion Blocker
The trophoblast culture line has been purchased and not subjected to genetic engineering.

Molecule	Adhesion blocking
Serum Transferrin: transferrin from serum	No
Amniotic transferrin: transferrin recovered from the amniotic fluid	Yes
Amniotic ✓-fetoprotein: α-fetoprotein from the amniotic fluid (protein, UniProt P02771 19-609, looked up) Alpha-fetoprotein: RTLHRNEYGIASILDSYQCTAEISLADLATIFFAQFVQEATYKEVSKMVKDALTAIEKPTGDEQSSGCLENQLPAFLEELCHEKEILEKYGHSDCCSQSEEGRHNCFLAHKKPTPASIPLFQVPEPVTSCEAYEEDRETFMNKFIYEIARRHPFLYAPTILLWAARYDKIIPSCCKAENAVECFQTKAATVTKELRESSLLNQHACAVMKNFGTRTFQAITVTKLSQKFTKVNFTEIQKLVLDVAHVHEHCCRGDVLDCLQDGEKIMSYICSQQDTLSNKITECCKLTTLERGQCIIHAENDEKPEGLSPNLNRFLGDRDFNQFSSGEKNIFLASFVHEYSRRHPQLAVSVILRVAKGYQELLEKCFQTENPLECQDKGEEELQKYIQESQALAKRSCGLFQKLGEYYLQNAFLVAYTKKAPQLTSSELMAITRKMAATAATCCQLSEDKLLACGEGAADIIIGHLCIRHEMTPVNPGVGQCCTSSYANRRPCFSSLVVDETYVPPAFSDDKFIFHKDLCQAQGVALQTMKQEFLINLVKQKPQITEEQLEAVIADFSGLLEKCCQGQEQEVCFAEEGQKLISKTRAALGV	Yes
Serum ✓-fetoprotein: α-fetoprotein from the serum of pregnant women (protein, UniProt P02771 19-609, looked up) Alpha-fetoprotein: RTLHRNEYGIASILDSYQCTAEISLADLATIFFAQFVQEATYKEVSKMVKDALTAIEKPTGDEQSSGCLENQLPAFLEELCHEKEILEKYGHSDCCSQSEEGRHNCFLAHKKPTPASIPLFQVPEPVTSCEAYEEDRETFMNKFIYEIARRHPFLYAPTILLWAARYDKIIPSCCKAENAVECFQTKAATVTKELRESSLLNQHACAVMKNFGTRTFQAITVTKLSQKFTKVNFTEIQKLVLDVAHVHEHCCRGDVLDCLQDGEKIMSYICSQQDTLSNKITECCKLTTLERGQCIIHAENDEKPEGLSPNLNRFLGDRDFNQFSSGEKNIFLASFVHEYSRRHPQLAVSVILRVAKGYQELLEKCFQTENPLECQDKGEEELQKYIQESQALAKRSCGLFQKLGEYYLQNAFLVAYTKKAPQLTSSELMAITRKMAATAATCCQLSEDKLLACGEGAADIIIGHLCIRHEMTPVNPGVGQCCTSSYANRRPCFSSLVVDETYVPPAFSDDKFIFHKDLCQAQGVALQTMKQEFLINLVKQKPQITEEQLEAVIADFSGLLEKCCQGQEQEVCFAEEGQKLISKTRAALGV	Yes
Urinary ✓-fetoprotein: α-fetoprotein from urine (protein, UniProt P02771 19-609, looked up) Alpha-fetoprotein: RTLHRNEYGIASILDSYQCTAEISLADLATIFFAQFVQEATYKEVSKMVKDALTAIEKPTGDEQSSGCLENQLPAFLEELCHEKEILEKYGHSDCCSQSEEGRHNCFLAHKKPTPASIPLFQVPEPVTSCEAYEEDRETFMNKFIYEIARRHPFLYAPTILLWAARYDKIIPSCCKAENAVECFQTKAATVTKELRESSLLNQHACAVMKNFGTRTFQAITVTKLSQKFTKVNFTEIQKLVLDVAHVHEHCCRGDVLDCLQDGEKIMSYICSQQDTLSNKITECCKLTTLERGQCIIHAENDEKPEGLSPNLNRFLGDRDFNQFSSGEKNIFLASFVHEYSRRHPQLAVSVILRVAKGYQELLEKCFQTENPLECQDKGEEELQKYIQESQALAKRSCGLFQKLGEYYLQNAFLVAYTKKAPQLTSSELMAITRKMAATAATCCQLSEDKLLACGEGAADIIIGHLCIRHEMTPVNPGVGQCCTSSYANRRPCFSSLVVDETYVPPAFSDDKFIFHKDLCQAQGVALQTMKQEFLINLVKQKPQITEEQLEAVIADFSGLLEKCCQGQEQEVCFAEEGQKLISKTRAALGV	No
Serum PP14: gestation protein pp14 from serum of pregnant women (protein, UniProt P09466 19-180, looked up) Glycodelin: MDIPQTKQDLELPKLAGTWHSMAMATNNISLMATLKAPLRVHITSLLPTPEDNLEIVLHRWENNSCVEKKVLGEKTENPKKFKINYTVANEATLLDTDYDNFLFLCLQDTTTPIQSMMCQYLARVLVEDDEIMQGFIRAFRPLPRHLWYLLDLKQMEEPCRF	Yes
Urinary PP14: gestation protein pp14 from urine of pregnant women (protein, UniProt P09466 19-180, looked up) Glycodelin: MDIPQTKQDLELPKLAGTWHSMAMATNNISLMATLKAPLRVHITSLLPTPEDNLEIVLHRWENNSCVEKKVLGEKTENPKKFKINYTVANEATLLDTDYDNFLFLCLQDTTTPIQSMMCQYLARVLVEDDEIMQGFIRAFRPLPRHLWYLLDLKQMEEPCRF	Yes

system: activated HUVEC; test: Adhesion inhibition test: HepG2 hepatoma cells to IL-1β activated HUVEC; format: cell-based, human; settings: HepG2 cell adhesion
Description: The adhesion test described below is used in vitro to test the active substances.
HUVECs are isolated from veins of fresh human umbilical cords, used up to the 3rd passage, and cultured to confluence in 96-well titer plates for testing. Expression on HUVEC is induced by adding 0.2 ng of IL-1β per well, reaching its maximum after 4 hours. At this point, an adhesion test/adhesion inhibition test analogous to the one for immobilized E-selectin is performed.
The IC50 values (concentration of inhibiting agent for 50% inhibition of adhesion) are indicated.

Molecule	IC50
sialyl-Lewis x [sLe^x]	2300 µM
